Results published in patent US20120135923A1 (IPSEN PHARMA S A S, published 2012).
Bridge positions count the residues as written; N and C are the ends. Square brackets hold non-standard residues; d marks the D form. Ends that are not written are not given here. 2Nal = N[C@@H](Cc1ccc2ccccc2c1)C(=O)O; d2Nal = N[C@H](Cc1ccc2ccccc2c1)C(=O)O; Bta = N[C@@H](Cc1csc2ccccc12)C(=O)O; Aic = NC1(C(=O)O)Cc2ccccc2C1; Pen = CC(C)(S)[C@H](N)C(=O)O; Ac6c = NC1(C(=O)O)CCCCC1; Nle = CCCC[C@H](N)C(=O)O; Ac3c = NC1(C(=O)O)CC1; GABA = NCCCC(=O)O; βAla = NCCC(=O)O

How the values were obtained:
hMC1-R [1] = molecular target: T1, hMC1-R (human, UniProt Q01726 1-317); assay: ratio Ki hMC1-R / Ki hMC4-R, same assay
T1 construct: whole, on cells; Assayed as membranes of CHO-K1 cells expressing the receptor; also called hMC-R receptor subtype 1; melanocyte-specific receptor (MC1-R)
T1 sequence (Q01726 whole entry): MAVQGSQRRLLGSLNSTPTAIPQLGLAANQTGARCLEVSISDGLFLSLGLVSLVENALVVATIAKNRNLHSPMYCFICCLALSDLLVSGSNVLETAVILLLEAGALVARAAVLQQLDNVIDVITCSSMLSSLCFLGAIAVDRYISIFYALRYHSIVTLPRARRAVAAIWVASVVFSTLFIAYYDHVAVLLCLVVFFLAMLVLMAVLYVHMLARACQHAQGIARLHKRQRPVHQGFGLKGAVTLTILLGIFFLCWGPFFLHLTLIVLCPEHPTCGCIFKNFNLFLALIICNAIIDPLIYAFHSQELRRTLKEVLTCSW
Protocol: (§1) Cellular membranes used for the in vitro receptor binding assays were obtained from transgenic CHO-K1 cells stably expressing hMC-R receptor subtypes 1, 3, 4 or 5. […] The pellets were resuspended in the same buffer and centrifuged at 50,000 g for 10 minutes at approximately 4° C. The washed pellets containing the cellular membranes were stored at approximately −80° C.
(§2) Competitive inhibition of [¹²⁵I](Tyr²)-(Nle⁴-D-Phe⁷)α-MSH ([¹²⁵I]-NDP-α-MSH, Amersham Biosciences®) binding was carried out in polypropylene 96 well plates. Cell membranes (1-10 μg protein/well) prepared as described above were incubated in 50 mM Tris-HCl at pH 7.4 containing 0.2% bovine serum albumin (BSA), 5 mM MgCl₂, 1 mM CaCl₂ and 0.1 mg/mL bacitracin, with increasing concentrations of the test compound and 0.1-0.3 nM […] for approximately 90-120 minutes at approximately 37° C. Bound [¹²⁵I]-NDP-α-MSH ligand was separated from free [¹²⁵I]-NDP-α-MSH by filtration through GF/C glass fiber filter plates (Unifilter®; Packard) presoaked with 0.1% (w/v) polyethylenimine (PEI), using a Packard Filtermate® harvester. Filters were washed three times with 50 mM Tris-HCl at pH 7.4 at a temperature of approximately 0-4° C. and then assayed for radioactivity using a Packard Topcount® scintillation counter. Binding data were analyzed by computer-assisted non-linear regression analysis (XL fit; IDBS).

hMC1-R [2] = molecular target: T1, hMC1-R; assay: competition with [125I]-NDP-α-MSH, CHO-K1 membranes
Protocol: as §1, §2

hMC3-R = molecular target: T2, hMC3-R (human, UniProt P41968 1-323); assay: as above
T2 construct: whole, on cells; Assayed as membranes of CHO-K1 cells expressing the receptor; also called hMC-R receptor subtype 3; melacortin-3 (MC3-R)
T2 sequence (P41968 whole entry): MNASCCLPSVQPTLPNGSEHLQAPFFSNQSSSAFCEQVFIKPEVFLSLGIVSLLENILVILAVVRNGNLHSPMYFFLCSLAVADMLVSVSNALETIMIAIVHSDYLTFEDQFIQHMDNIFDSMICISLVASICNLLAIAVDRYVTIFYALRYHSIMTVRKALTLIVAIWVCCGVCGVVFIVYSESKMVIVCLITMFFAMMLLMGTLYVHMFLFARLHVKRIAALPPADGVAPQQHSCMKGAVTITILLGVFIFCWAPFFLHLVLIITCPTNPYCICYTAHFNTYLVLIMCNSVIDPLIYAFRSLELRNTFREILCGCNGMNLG
Protocol: as §1, §2

hMC4-R = molecular target: T3, hMC4-R (human, UniProt P32245 1-332); assay: as above
T3 construct: whole, on cells; Assayed as membranes of CHO-K1 cells expressing the receptor; also called hMC-R receptor subtype 4; melanocortin-4 (MC4-R)
T3 sequence (P32245 whole entry): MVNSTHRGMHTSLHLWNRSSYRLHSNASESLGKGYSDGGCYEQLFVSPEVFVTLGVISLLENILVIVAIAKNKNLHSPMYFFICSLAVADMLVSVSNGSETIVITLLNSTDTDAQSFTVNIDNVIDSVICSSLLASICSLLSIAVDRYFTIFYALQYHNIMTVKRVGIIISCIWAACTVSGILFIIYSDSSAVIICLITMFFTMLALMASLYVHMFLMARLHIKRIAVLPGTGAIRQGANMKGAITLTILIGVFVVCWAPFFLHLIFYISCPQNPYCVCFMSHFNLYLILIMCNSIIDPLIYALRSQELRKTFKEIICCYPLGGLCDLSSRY
Protocol: as §1, §2

hMC5-R = molecular target: T4, hMC5-R (human, UniProt P33032 1-325); assay: as above
T4 construct: whole, on cells; Assayed as membranes of CHO-K1 cells expressing the receptor; also called hMC-R receptor subtype 5; melanocortin-5 receptor (MC5-R)
T4 sequence (P33032 whole entry): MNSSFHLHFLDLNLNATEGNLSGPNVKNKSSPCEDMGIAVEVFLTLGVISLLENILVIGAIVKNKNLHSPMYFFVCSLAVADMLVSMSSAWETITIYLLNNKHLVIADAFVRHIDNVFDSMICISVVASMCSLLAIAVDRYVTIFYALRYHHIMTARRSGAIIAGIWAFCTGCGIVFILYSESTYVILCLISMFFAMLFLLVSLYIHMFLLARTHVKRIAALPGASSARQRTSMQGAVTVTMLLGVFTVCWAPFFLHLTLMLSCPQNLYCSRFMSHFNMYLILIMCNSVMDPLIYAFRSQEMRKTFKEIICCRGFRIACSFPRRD
Protocol: as §1, §2

[3] = molecular target: T5, human melanocortin receptor subtype 1 (hMC1-R) (human, UniProt Q01726 1-317); assay: [125I]-NDP-α-MSH competition, membranes
T5 construct: whole, on cells; membranes of CHO-K1 cells
T5 sequence (Q01726 whole entry): as the sequence (Q01726 whole entry) above

[4] = molecular target: T6, human melanocortin receptor subtype 3 (hMC3-R) (human, UniProt P41968 1-323); assay: [125I]-NDP-α-MSH competition, membranes
T6 construct: whole, on cells; membranes of CHO-K1 cells
T6 sequence (P41968 whole entry): as the sequence (P41968 whole entry) above

[5] = molecular target: T7, human melanocortin receptor subtype 4 (hMC4-R) (human, UniProt P32245 1-332); assay: [125I]-NDP-α-MSH competition, membranes
T7 construct: whole, on cells; membranes of CHO-K1 cells
T7 sequence (P32245 whole entry): as the sequence (P32245 whole entry) above

[6] = molecular target: T8, human melanocortin receptor subtype 5 (hMC5-R) (human, UniProt P33032 1-325); assay: [125I]-NDP-α-MSH competition, membranes
T8 construct: whole, on cells; membranes of CHO-K1 cells
T8 sequence (P33032 whole entry): as the sequence (P33032 whole entry) above

Ki hMC1-R/MC4-R (hMC1-R [1])	Ki (hMC1-R [2]) [nM]	Ki (hMC3-R) [nM]	Ki (hMC4-R) [nM]	Ki (hMC5-R) [nM]	Ki [3] [nM]	Ki [4] [nM]	Ki [5] [nM]	Ki [6] [nM]	Binder
3.24	132	4560	40.7	8810					Ac-C[dA]H[dF]R[2Nal]AC-NH2 (disulfide 1-8; SMILES CC(=O)N[C@H]1CSSC[C@@H](C(N)=O)NC(=O)[C@H](C)NC(=O)[C@H](Cc2ccc3ccccc3c2)NC(=O)[C@H](CCCNC(=N)N)NC(=O)[C@@H](Cc2ccccc2)NC(=O)[C@H](Cc2c[nH]cn2)NC(=O)[C@@H](C)NC1=O) [Ac-c(Cys-D-Ala-His-D-Phe-Arg-2-Nal-Ala-Cys)-NH2]
0.21	0.744	178	3.51	2.69					Ac-[Nle][Pen]H[dF]RW[GABA][Pen]-NH2 (disulfide 2-8) [Ac-Nle-c(Pen-His-D-Phe-Arg-Trp-Gaba-Pen)-NH2]
					15.6	305	8.92	3070	GCEH[dF]RWC-NH2 (disulfide 2-8; also: hydantoin ring from C(O) with Gly1-Cys2) [c[Hydantoin(C(O)-(Gly-Cys))-Glu-His-D-Phe-Arg-Trp-Cys]-NH2]
					2170	1480	16.5	451	D[Ac6c][d2Nal]RWK-NH2 (lactam 1-6; also: hydantoin ring: N-terminal N of Asp1 and backbone N of residue 2 bridged by one C(O), bridge at N via C(O), other end not in the chain) [c[Hydantoin(C(O)-(Asp-A6c))-D-2-Nal-Arg-Trp-Lys]-NH2]
0.4	1.81	20.5	4.57	502					Ac-RCH[dF]RW[GABA][Pen]-NH2 (disulfide 2-8; SMILES CC(=O)N[C@@H](CCCNC(=N)N)C(=O)N[C@H]1CSSC(C)(C)[C@@H](C(N)=O)NC(=O)CCCNC(=O)[C@H](Cc2c[nH]c3ccccc23)NC(=O)[C@H](CCCNC(=N)N)NC(=O)[C@@H](Cc2ccccc2)NC(=O)[C@H](Cc2c[nH]cn2)NC1=O) [Ac-Arg-c(Cys-His-D-Phe-Arg-Trp-Gaba-Pen)-NH2]
0.36	3.93	172	11	538					Ac-[dR]CH[dF]RW[GABA][Pen]-NH2 (disulfide 2-8; SMILES CC(=O)N[C@H](CCCNC(=N)N)C(=O)N[C@H]1CSSC(C)(C)[C@@H](C(N)=O)NC(=O)CCCNC(=O)[C@H](Cc2c[nH]c3ccccc23)NC(=O)[C@H](CCCNC(=N)N)NC(=O)[C@@H](Cc2ccccc2)NC(=O)[C@H](Cc2c[nH]cn2)NC1=O) [Ac-D-Arg-c(Cys-His-D-Phe-Arg-Trp-Gaba-Pen)-NH2]
0.16	0.323	14.1	1.96	24					Ac-[Nle]CH[dF]R[dW][βAla]C-NH2 (disulfide 2-8; SMILES CCCC[C@H](NC(C)=O)C(=O)N[C@H]1CSSC[C@@H](C(N)=O)NC(=O)CCNC(=O)[C@@H](Cc2c[nH]c3ccccc23)NC(=O)[C@H](CCCNC(=N)N)NC(=O)[C@@H](Cc2ccccc2)NC(=O)[C@H](Cc2c[nH]cn2)NC1=O) [Ac-Nle-c(Cys-His-D-Phe-Arg-D-Trp-β-Ala-Cys)-NH2]
					9030	2630	35.8	1160	D[Aic][d2Nal]RWK-NH2 (lactam 1-6; also: hydantoin ring: N-terminal N of Asp1 and backbone N of residue 2 bridged by one C(O), bridge at N via C(O), other end not in the chain) [c[Hydantoin(C(O)-(Asp-Aic))-D-2-Nal-Arg-Trp-Lys]-NH2]
2.33	111	1710	47.7	694					Ac-CEH[dF]RWAC-NH2 (disulfide 1-8; SMILES CC(=O)N[C@H]1CSSC[C@@H](C(N)=O)NC(=O)[C@H](C)NC(=O)[C@H](Cc2c[nH]c3ccccc23)NC(=O)[C@H](CCCNC(=N)N)NC(=O)[C@@H](Cc2ccccc2)NC(=O)[C@H](Cc2c[nH]cn2)NC(=O)[C@H](CCC(=O)O)NC1=O) [Ac-c(Cys-Glu-His-D-Phe-Arg-Trp-Ala-Cys)-NH2]
2.06	199	5990	96.7						Ac-C[dA]H[dF]RWAC-NH2 (disulfide 1-8) [Ac-c(Cys-D-Ala-His-D-Phe-Arg-Trp-Ala-Cys)-NH2]
0.39	1.6	6.82	4.13	5.57					Ac-[Nle]C[dL]H[dF]RWC-NH2 (disulfide 2-8; SMILES CCCC[C@H](NC(C)=O)C(=O)N[C@H]1CSSC[C@@H](C(N)=O)NC(=O)[C@H](Cc2c[nH]c3ccccc23)NC(=O)[C@H](CCCNC(=N)N)NC(=O)[C@@H](Cc2ccccc2)NC(=O)[C@H](Cc2c[nH]cn2)NC(=O)[C@@H](CC(C)C)NC1=O) [Ac-Nle-c(Cys-D-Leu-His-D-Phe-Arg-Trp-Cys)-NH2]
					7570	1920	420	2880	D[Ac3c][d2Nal]RWK-NH2 (lactam 1-6; also: hydantoin ring: N-terminal N of Asp1 and backbone N of residue 2 bridged by one C(O), bridge at N via C(O), other end not in the chain) [c[Hydantoin(C(O)-(Asp-A3c))-D-2-Nal-Arg-Trp-Lys]-NH2]
0.12									Ac-FCH[dF]RW[GABA]C-NH2 (disulfide 2-8) [Ac-Phe-c(Cys-His-D-Phe-Arg-Trp-Gaba-Cys)-NH2]
0.26	0.659	98.9	2.55	4.19					Ac-[Nle]D[dA]H[dF]RWK-NH2 (lactam 2-8; SMILES CCCC[C@H](NC(C)=O)C(=O)N[C@H]1CC(=O)NCCCC[C@@H](C(N)=O)NC(=O)[C@H](Cc2c[nH]c3ccccc23)NC(=O)[C@H](CCCNC(=N)N)NC(=O)[C@@H](Cc2ccccc2)NC(=O)[C@H](Cc2c[nH]cn2)NC(=O)[C@@H](C)NC1=O) [Ac-Nle-c(Asp-D-Ala-His-D-Phe-Arg-Trp-Lys)-NH2]
0.08	4.12	445	50.6	4300					Ac-[Nle]D[dA]H[dF]R[Bta]K-NH2 (lactam 2-8; SMILES CCCC[C@H](NC(C)=O)C(=O)N[C@H]1CC(=O)NCCCC[C@@H](C(N)=O)NC(=O)[C@H](Cc2csc3ccccc23)NC(=O)[C@H](CCCNC(=N)N)NC(=O)[C@@H](Cc2ccccc2)NC(=O)[C@H](Cc2c[nH]cn2)NC(=O)[C@@H](C)NC1=O) [Ac-Nle-c(Asp-D-Ala-His-D-Phe-Arg-Bal-Lys)-NH2]
0.04	0.186		4.93	0.537					FCH[dF]RW[GABA]C-NH2 (disulfide 2-8; N-terminus assumed; SMILES N=C(N)NCCC[C@@H]1NC(=O)[C@@H](Cc2ccccc2)NC(=O)[C@H](Cc2c[nH]cn2)NC(=O)[C@@H](NC(=O)[C@@H](N)Cc2ccccc2)CSSC[C@@H](C(N)=O)NC(=O)CCCNC(=O)[C@H](Cc2c[nH]c3ccccc23)NC1=O) [Phe-c(Cys-His-D-Phe-Arg-Trp-Gaba-Cys)-NH2]
0.41	9.12	1130	22.1	2860					Ac-[Nle]C[dA]H[dF]RWAC-NH2 (disulfide 2-9) [Ac-Nle-c(Cys-D-Ala-His-D-Phe-Arg-Trp-Ala-Cys)-NH2]
